Reference: patent US20240092841A1

Legend:
Assay in all cases: co-IP with agarose-bound AvFc from H460 whole-cell lysate, mass spectrometry
[1] = biological target: Transferrin receptor protein 1 (human) (UniProt P02786)
[2] = biological target: Neural cell adhesion molecule L1 (human) (UniProt P32004)
[3] = biological target: Scavenger receptor class A member 5 (human) (UniProt Q6ZMJ2)
[4] = biological target: Insulin-like growth factor 1 receptor (human) (UniProt P08069)
[5] = biological target: Solute carrier family 2, facilitated glucose transporter member 1 (human) (UniProt P11166)
Sequence of UniProt P11166 (P11166 whole entry): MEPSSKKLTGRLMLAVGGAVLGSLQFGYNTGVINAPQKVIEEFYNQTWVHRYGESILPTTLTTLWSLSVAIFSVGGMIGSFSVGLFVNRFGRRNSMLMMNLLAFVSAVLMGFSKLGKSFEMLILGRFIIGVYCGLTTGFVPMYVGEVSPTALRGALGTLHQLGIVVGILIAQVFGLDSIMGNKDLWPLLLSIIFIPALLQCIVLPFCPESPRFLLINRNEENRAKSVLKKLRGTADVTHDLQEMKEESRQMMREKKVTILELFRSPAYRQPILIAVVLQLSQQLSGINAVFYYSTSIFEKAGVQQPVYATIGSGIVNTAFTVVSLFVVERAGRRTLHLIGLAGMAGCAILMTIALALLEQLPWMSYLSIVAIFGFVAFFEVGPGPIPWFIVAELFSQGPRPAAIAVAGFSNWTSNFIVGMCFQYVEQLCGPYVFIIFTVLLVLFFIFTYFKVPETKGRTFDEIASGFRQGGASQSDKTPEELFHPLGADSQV

[6] = biological target: Galectin-3-binding protein (human) (UniProt Q08380)
Integrin alpha-1 (human) = Integrin alpha-1 (human) (UniProt P56199)
[7] = biological target: 4F2 cell-surface antigen heavy chain (human) (UniProt P08195)
[8] = biological target: Laminin subunit beta-2 (human) (UniProt P55268)
[9] = biological target: Sortilin-related receptor (human) (UniProt Q92673)
[10] = biological target: Protocadherin Fat 1 (human) (UniProt Q14517)
[11] = biological target: Disintegrin and metalloproteinase domain-containing protein 9 (human) (UniProt Q13443)
[12] = biological target: Urokinase plasminogen activator surface receptor (human) (UniProt Q03405)
[13] = biological target: Laminin subunit beta-1 (human) (UniProt P07942)
[14] = biological target: Contactin-associated protein 1 (human) (UniProt P78357)
Plexin-B2 (human) = Plexin-B2 (human) (UniProt O15031)
Integrin alpha-2 (human) = Integrin alpha-2 (human) (UniProt P17301)
Serpin H1 (human) = Serpin H1 (human) (UniProt P50454)
[15] = biological target: Magnesium transporter protein 1 (human) (UniProt Q9H0U3)
Sequence of UniProt Q9H0U3 (Q9H0U3 30-335 limits assumed): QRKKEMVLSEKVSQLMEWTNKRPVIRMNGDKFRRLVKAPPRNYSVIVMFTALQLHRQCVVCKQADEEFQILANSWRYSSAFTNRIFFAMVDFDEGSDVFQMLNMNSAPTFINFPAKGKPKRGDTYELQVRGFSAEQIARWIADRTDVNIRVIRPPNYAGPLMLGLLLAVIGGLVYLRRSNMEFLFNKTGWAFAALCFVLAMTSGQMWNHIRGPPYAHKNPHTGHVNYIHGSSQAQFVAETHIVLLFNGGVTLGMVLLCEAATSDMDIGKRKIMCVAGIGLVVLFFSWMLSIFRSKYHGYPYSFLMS

[16] = biological target: Myoferlin (Q9NZM1-2) (human) (UniProt Q9NZM1)
[17] = biological target: Prolow-density lipoprotein receptor-related protein 1 (human) (UniProt Q07954)
Integrin alpha-5 (human) = Integrin alpha-5 (human) (UniProt P08648)
[18] = biological target: Niemann-Pick C1 protein (human) (UniProt O15118)
Agrin (human) = Agrin (human) (UniProt O00468)
[19] = biological target: Scavenger receptor class B member 1 (human) (UniProt Q8WTV0)
[20] = biological target: Cell cycle control protein 50A (human) (UniProt Q9NV96)
Fibronectin (human) = Fibronectin (human) (UniProt P02751)
Sequence of UniProt P02751 (P02751 other isoform, or with tags, fused parts or gaps limits assumed): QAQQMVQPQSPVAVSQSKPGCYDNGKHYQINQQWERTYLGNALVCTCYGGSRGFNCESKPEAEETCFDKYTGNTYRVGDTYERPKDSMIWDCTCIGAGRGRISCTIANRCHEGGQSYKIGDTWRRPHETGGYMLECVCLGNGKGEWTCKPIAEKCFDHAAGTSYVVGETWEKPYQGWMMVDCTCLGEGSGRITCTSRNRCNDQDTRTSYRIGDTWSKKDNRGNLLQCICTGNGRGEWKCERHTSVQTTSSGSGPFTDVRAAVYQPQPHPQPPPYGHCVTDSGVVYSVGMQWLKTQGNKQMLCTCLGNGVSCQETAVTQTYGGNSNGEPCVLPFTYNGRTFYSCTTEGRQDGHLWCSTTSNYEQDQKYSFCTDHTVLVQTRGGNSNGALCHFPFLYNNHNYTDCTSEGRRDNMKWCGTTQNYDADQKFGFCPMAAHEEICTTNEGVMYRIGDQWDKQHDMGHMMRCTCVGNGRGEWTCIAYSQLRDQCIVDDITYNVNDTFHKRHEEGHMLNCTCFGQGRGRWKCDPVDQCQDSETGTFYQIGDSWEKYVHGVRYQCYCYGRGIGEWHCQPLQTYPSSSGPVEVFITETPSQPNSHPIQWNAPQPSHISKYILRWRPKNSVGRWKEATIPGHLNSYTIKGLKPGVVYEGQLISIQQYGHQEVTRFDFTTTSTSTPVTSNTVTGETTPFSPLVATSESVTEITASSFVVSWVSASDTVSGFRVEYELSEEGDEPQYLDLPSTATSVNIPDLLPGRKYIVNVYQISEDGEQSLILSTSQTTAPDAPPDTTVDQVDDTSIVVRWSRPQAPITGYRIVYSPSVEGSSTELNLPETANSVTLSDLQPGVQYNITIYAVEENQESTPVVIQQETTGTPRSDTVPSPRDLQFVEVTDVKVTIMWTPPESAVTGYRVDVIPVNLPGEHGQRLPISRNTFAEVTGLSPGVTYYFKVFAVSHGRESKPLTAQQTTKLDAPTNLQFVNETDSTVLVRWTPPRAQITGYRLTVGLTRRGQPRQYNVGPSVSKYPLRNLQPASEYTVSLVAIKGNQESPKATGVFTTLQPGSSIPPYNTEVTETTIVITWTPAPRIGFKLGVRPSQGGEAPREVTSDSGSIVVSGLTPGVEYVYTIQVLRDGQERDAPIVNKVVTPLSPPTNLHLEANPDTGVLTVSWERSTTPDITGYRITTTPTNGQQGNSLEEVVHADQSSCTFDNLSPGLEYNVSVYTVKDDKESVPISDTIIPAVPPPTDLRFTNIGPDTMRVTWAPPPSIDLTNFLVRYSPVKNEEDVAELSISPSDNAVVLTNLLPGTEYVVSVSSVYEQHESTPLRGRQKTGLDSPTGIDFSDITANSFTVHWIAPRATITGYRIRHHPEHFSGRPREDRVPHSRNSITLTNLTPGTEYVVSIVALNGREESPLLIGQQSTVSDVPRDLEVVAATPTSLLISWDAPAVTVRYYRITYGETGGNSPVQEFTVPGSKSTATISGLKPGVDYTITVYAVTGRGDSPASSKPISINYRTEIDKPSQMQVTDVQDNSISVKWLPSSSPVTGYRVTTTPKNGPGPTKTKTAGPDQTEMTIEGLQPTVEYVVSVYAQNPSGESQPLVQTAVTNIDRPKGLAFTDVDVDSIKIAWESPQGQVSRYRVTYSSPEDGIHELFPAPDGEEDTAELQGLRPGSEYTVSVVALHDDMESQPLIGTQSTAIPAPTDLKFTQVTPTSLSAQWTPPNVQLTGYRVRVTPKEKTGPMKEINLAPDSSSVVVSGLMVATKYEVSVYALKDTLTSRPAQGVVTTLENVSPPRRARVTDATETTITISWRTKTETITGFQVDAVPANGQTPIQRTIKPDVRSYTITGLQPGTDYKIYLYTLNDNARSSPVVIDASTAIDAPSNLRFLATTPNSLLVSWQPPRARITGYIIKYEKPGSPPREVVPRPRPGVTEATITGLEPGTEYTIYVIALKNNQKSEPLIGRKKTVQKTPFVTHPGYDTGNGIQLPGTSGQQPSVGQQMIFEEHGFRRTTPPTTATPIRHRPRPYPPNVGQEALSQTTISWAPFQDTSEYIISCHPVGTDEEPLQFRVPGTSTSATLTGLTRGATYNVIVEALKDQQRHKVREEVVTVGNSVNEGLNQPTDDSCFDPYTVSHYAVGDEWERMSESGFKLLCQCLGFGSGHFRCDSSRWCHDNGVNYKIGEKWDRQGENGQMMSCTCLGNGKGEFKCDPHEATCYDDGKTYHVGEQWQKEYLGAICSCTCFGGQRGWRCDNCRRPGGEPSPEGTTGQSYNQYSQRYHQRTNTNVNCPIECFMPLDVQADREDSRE

[21] = biological target: Neutral amino acid transporter B (0) (human) (UniProt Q15758)
[22] = biological target: ATP-binding cassette sub-family A member 2 (human) (UniProt Q9BZC7)
[23] = biological target: Cation-independent mannose-6-phosphate receptor (human) (UniProt P11717)
[24] = biological target: Cation-dependent mannose-6-phosphate receptor (human) (UniProt P20645)
Nidogen-2 (human) = Nidogen-2 (human) (UniProt Q14112)
[25] = biological target: Tetratricopeptide repeat protein 13 (Q8NBP0-2) (human) (UniProt Q8NBP0)
[26] = biological target: Synaptonemal complex protein SC65 (human) (UniProt Q92791)
Integrin alpha-3 (human) = Integrin alpha-3 (human) (UniProt P26006)
Sequence of UniProt P26006 (P26006 33-1051 limits assumed): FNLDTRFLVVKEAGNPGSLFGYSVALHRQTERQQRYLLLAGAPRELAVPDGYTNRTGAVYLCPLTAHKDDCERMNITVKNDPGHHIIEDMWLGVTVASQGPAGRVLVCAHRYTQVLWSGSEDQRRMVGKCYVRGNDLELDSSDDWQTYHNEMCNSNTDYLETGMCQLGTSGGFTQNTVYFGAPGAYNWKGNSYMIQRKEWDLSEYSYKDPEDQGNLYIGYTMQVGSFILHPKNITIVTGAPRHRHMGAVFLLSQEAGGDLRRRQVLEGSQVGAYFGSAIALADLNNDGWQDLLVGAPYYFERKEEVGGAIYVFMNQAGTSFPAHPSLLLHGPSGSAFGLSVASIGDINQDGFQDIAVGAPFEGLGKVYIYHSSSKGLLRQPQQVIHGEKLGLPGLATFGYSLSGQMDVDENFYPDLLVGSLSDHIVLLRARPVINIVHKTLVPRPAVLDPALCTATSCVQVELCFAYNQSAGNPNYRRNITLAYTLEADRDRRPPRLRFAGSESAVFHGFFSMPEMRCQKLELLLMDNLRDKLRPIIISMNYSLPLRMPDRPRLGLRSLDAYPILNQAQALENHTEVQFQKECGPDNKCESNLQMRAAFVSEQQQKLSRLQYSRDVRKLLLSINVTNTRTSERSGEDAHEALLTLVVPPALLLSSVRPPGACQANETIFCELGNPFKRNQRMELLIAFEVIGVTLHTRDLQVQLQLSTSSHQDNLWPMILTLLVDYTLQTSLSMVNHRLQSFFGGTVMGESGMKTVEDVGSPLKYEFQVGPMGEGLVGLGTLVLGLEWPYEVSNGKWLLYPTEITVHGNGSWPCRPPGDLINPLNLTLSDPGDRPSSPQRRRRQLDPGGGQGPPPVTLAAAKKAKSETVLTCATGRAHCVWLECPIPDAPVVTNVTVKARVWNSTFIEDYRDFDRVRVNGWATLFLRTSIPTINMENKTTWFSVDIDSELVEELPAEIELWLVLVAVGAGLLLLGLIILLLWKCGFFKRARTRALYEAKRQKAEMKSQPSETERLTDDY

Integrin alpha-V (human) = Integrin alpha-V (human) (UniProt P06756)
Sequence of UniProt P06756 (P06756 other isoform, or with tags, fused parts or gaps limits assumed): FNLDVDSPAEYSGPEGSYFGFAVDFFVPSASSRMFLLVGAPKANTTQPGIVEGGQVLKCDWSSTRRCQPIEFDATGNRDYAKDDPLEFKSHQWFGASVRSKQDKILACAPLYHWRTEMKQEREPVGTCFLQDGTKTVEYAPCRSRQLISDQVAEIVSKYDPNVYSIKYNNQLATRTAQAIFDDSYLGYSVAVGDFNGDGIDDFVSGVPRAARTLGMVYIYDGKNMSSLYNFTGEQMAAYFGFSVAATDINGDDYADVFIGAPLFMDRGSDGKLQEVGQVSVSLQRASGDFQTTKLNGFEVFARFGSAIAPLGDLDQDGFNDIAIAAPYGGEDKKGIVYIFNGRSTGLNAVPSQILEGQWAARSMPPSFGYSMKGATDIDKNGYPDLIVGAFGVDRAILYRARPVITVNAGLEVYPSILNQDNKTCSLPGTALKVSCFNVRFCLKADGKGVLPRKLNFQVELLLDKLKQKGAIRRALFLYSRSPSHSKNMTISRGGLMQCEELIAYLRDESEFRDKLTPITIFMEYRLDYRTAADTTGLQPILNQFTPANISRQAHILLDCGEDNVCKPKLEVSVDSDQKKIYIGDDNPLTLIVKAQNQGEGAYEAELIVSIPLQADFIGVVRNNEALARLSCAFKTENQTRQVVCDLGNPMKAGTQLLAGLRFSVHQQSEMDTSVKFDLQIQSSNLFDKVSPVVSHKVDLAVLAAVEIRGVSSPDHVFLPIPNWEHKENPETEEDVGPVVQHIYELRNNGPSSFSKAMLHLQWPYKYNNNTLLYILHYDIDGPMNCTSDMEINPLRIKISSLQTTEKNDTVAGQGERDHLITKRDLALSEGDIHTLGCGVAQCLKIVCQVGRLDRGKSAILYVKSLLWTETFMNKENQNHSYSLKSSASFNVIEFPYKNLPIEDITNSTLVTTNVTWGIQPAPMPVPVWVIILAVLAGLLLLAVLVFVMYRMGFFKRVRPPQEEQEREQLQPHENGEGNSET

[27] = biological target: Laminin subunit gamma-1 (human) (UniProt P11047)
[28] = biological target: Solute carrier family 12 member 7 (human) (UniProt Q9Y666)

## Avaren-Fc (AvFc) (Fc fusion)
[1]
  Percentage of Total Spectra (%): 0.21%
[2]
  Percentage of Total Spectra (%): 0.099%
[3]
  Percentage of Total Spectra (%): 0.099%
[4]
  Percentage of Total Spectra (%): 0.033%
[5]
  Percentage of Total Spectra (%): 0.033%
[6]
  Percentage of Total Spectra (%): 0.17%
Integrin alpha-1 (human)
  Percentage of Total Spectra (%): 0.13%
[7]
  Percentage of Total Spectra (%): 0.091%
[8]
  Percentage of Total Spectra (%): 0.16%
[9]
  Percentage of Total Spectra (%): 0.058%
[10]
  Percentage of Total Spectra (%): 0.058%
[11]
  Percentage of Total Spectra (%): 0.091%
[12]
  Percentage of Total Spectra (%): 0.066%
[13]
  Percentage of Total Spectra (%): 0.31%
[14]
  Percentage of Total Spectra (%): 0.13%
Plexin-B2 (human)
  Percentage of Total Spectra (%): 0.13%
Integrin alpha-2 (human)
  Percentage of Total Spectra (%): 0.0083%
Serpin H1 (human)
  Percentage of Total Spectra (%): 0.058%
[15]
  Percentage of Total Spectra (%): 0.017%
[16]
  Percentage of Total Spectra (%): 0.11%
[17]
  Percentage of Total Spectra (%): 0.017%
Integrin alpha-5 (human)
  Percentage of Total Spectra (%): 0.041%
[18]
  Percentage of Total Spectra (%): 0.066%
Agrin (human)
  Percentage of Total Spectra (%): 0.15%
[19]
  Percentage of Total Spectra (%): 0.15%
[20]
  Percentage of Total Spectra (%): 0.033%
Fibronectin (human)
  Percentage of Total Spectra (%): 0.21%
[21]
  Percentage of Total Spectra (%): 0.05%
[22]
  Percentage of Total Spectra (%): 0.21%
[23]
  Percentage of Total Spectra (%): 0.44%
[24]
  Percentage of Total Spectra (%): 0.025%
Nidogen-2 (human)
  Percentage of Total Spectra (%): 0.066%
[25]
  Percentage of Total Spectra (%): 0.11%
[26]
  Percentage of Total Spectra (%): 0.066%
Integrin alpha-3 (human)
  Percentage of Total Spectra (%): 0.025%
Integrin alpha-V (human)
  Percentage of Total Spectra (%): 0.13%
[27]
  Percentage of Total Spectra (%): 0.83%
[28]
  Percentage of Total Spectra (%): 0.0083%
